According to PMC9785946, “Bioorthogonal Chemistry Approach for the Theranostics of GRPR-Expressing Cancers” (Pharmaceutics, 2022):
Like-named read-outs stand apart in the source and are kept apart here.

Assays:
[1] = Method: The octanol–water partition coefficients (Po/w) of the radioconjugates (20 µL, typically 1 to 5 MBq) were determined by the “shake-flask” method, as previously described.
PC3 cells = test: Cellular uptake, internalization and blocking assays in PC3 cells; type: cell-based, human; conditions: 37 °C
Method: The time-dependent accumulation of ^111In-conjugates in PC3 cells was evaluated according to a previously described procedure. Briefly, PC3 cells were incubated at 37 °C for 5 min to 4 h with about 7.4 kBq of the tested radioconjugates. To assess the surface binding, the cells were treated twice with glycine buffer (50 mM glycine-HCl/100 mM NaCl, pH 2.8). Then, the cells were lysed with NaOH 1 M (internalized radioconjugate). The activity in both cell surface-bound and internalized fractions was measured in a γ-counter and reported as a percentage of the total applied radioactivity. The total cellular uptake was calculated by the addition of the activities recovered from the surface binding and internalized fractions. Assays for each time point were performed in quadruplicate, and data were presented as average ± SD of typically three independent experiments.
To assess the specific GRPR-mediated cellular uptake and internalization of radioconjugates (receptor blocking studies), a similar study was performed in which cells were incubated with the [^111In]In-DOTA-Tz-TCO-PEG4-AR for 1, 2 and 4 h, with or without the GRPR agonist Tyr4-Bombesin (0.25 µg/0.5 mL/well).

[2] = Biodistribution of 111In-radioconjugates/radiocomplex in PC3 xenografts-bearing mice; type: in vivo, Balb/c-male nude mice; conditions: male, Balb/c nude, mouse, iv, total radioactivity, 1 h p.i.
From the text: (§1) Blood samples were taken by cardiac puncture at sacrifice.

[3] = system: PC3 xenografts-bearing mice; test: as above; type: in vivo, Balb/c-male nude mice
From the text: as §1

in vitro = conditions: human, human serum
Method: The radiochemical stability of the radioconjugates was evaluated in vitro by the incubation of the four radioconjugates at 37 °C in PBS, in cell culture media (CCM) and human serum (HS) for 24 h, followed by HPLC analysis.

GRPR = system: GRPR; design: method as in PMID 22080443, PMID 9437737; conditions: literature value for reference peptide; ref [32],[39]; cited from earlier work
[4] = 1 h p.i., blocking (excess of agonist)

In the case of CC(C)C[C@H](NC(=O)C[C@H](O)[C@H](CC(C)C)NC(=O)[C@H](Cc1c[nH]cn1)NC(=O)CNC(=O)[C@@H](NC(=O)[C@H](C)NC(=O)[C@H](Cc1c[nH]c2ccccc12)NC(=O)[C@H](CCC(N)=O)NC(=O)[C@@H](Cc1ccccc1)NC(=O)CN1CCC(NC(=O)OC2CCCc3c(cnnc3-c3ccc(CNC(=O)CN4CCN(CC(=O)O)CCN(CC(=O)O)CCN(CC(=O)O)CC4)cc3)CC2)CC1)C(C)C)C(N)=O (some centres unmarked) [[^111In]In-DOTA-Tz-TCO-Pip-AR, metal not drawn], the logP [1] is reported as -1.28 ± 0.01, the “Distribution of cell-associated activity (surface-bound vs internalized)” value (PC3 cells) is reported as “almost all cell-associated activity corresponded to the membrane-bound fraction” and the Maximum cellular uptake (PC3 cells; 5 min to 4 h) is reported as “around 10 % of the total activity applied per million cells”. The tissue uptake at 1 h ([2]; pancreas, read-out: Pancreas uptake) was 2.8 ± 0.5 %ID/g, the tissue uptake at 1 h ([2]; tumor (PC3 xenograft), read-out: Tumor uptake) was 3.2 ± 0.1 %ID/g and the Blood uptake ([3]; 1 h p.i.) was 2. 63 % I.D./g. The Bone uptake ([3]; 1 h p.i.) was 1. 2 % I.D./g, the Excretion ([3]; 1 h p.i.) was 63. % I.D and the Heart uptake ([3]; 1 h p.i.) was 1. 06 % I.D./g. The Intestine uptake ([3]; 1 h p.i.) was 0. 54 % I.D./g, the Kidneys uptake ([3]; 1 h p.i.) was 9. 04 % I.D./g and the Liver uptake ([3]; 1 h p.i.) was 3. 97 % I.D./g. The Lungs uptake ([3]; 1 h p.i.) was 1. 74 % I.D./g, the Muscle uptake ([3]; 1 h p.i.) was 0. 64 % I.D./g and the Pancreas uptake ([3]; 1 h p.i.) was 3. 24 % I.D./g. For the same molecule, the Spleen uptake ([3]; 1 h p.i.) was 0. 98 % I.D./g, the Stomach uptake ([3]; 1 h p.i.) was 0. 48 % I.D./g and the Tumor uptake ([3]; 1 h p.i.) was 2. 79 % I.D./g. The Blood uptake [3, 4] was 3. 11 % I.D./g, the Bone uptake [3, 4] was 0. 97 % I.D./g and the Excretion [3, 4] was 60. % I.D. The Heart uptake [3, 4] was 0. 6 % I.D./g, the Intestine uptake [3, 4] was 0. 4 % I.D./g and the Kidneys uptake [3, 4] was 7. 18 % I.D./g. The Liver uptake [3, 4] was 3. 28 % I.D./g, the Lungs uptake [3, 4] was 1. 44 % I.D./g and the Muscle uptake [3, 4] was 0. 63 % I.D./g. For the same molecule, the Pancreas uptake [3, 4] was 1. 67 % I.D./g, the Spleen uptake [3, 4] was 0. 74 % I.D./g and the Stomach uptake [3, 4] was 0. 34 % I.D./g. For the same molecule, the Tumor uptake [3, 4] was 1. 38 % I.D./g, the Blood uptake ([3]; 2 h p.i.) was 0. 16 % I.D./g and the Bone uptake ([3]; 2 h p.i.) was 0. 13 % I.D./g. The Excretion ([3]; 2 h p.i.) was 91. % I.D, the Heart uptake ([3]; 2 h p.i.) was 0. 08 % I.D./g and the Intestine uptake ([3]; 2 h p.i.) was 0. 09 % I.D./g. The Kidneys uptake ([3]; 2 h p.i.) was 3. 09 % I.D./g, the Liver uptake ([3]; 2 h p.i.) was 1. 02 % I.D./g and the Lungs uptake ([3]; 2 h p.i.) was 0. 18 % I.D./g. The Muscle uptake ([3]; 2 h p.i.) was 0. 05 % I.D./g, the Pancreas uptake ([3]; 2 h p.i.) was 0. 28 % I.D./g and the Spleen uptake ([3]; 2 h p.i.) was 0. 28 % I.D./g. For the same molecule, the Stomach uptake ([3]; 2 h p.i.) was 0. 05 % I.D./g and the Tumor uptake ([3]; 2 h p.i.) was 1. 13 % I.D./g.
With CC(C)C[C@H](NC(=O)C[C@H](O)[C@H](CC(C)C)NC(=O)[C@H](Cc1c[nH]cn1)NC(=O)CNC(=O)[C@@H](NC(=O)[C@H](C)NC(=O)[C@H](Cc1c[nH]c2ccccc12)NC(=O)[C@H](CCC(N)=O)NC(=O)[C@@H](Cc1ccccc1)NC(=O)CCOCCOCCOCCOCCNC(=O)OC1CCCc2c(cnnc2-c2ccc(CNC(=O)CCC(C(=O)O)N3CCN(CC(=O)O)CCN(CC(=O)O)CCN(CC(=O)O)CC3)cc2)CC1)C(C)C)C(N)=O (some centres unmarked) [[^111In]In-DOTAGA-Tz-TCO-PEG4-AR, metal not drawn] the logP [1] was -1.18 ± 0.05 and the remaining at 24 h (in vitro) was ~70%.
For “D-Phe-Gln-Trp-Ala-Val-Gly-His-Sta-Leu-NH2 [AR]”, the IC50 (GRPR) is listed as 2.9 ± 0.6 nM.
